In the supplement of paper PMC9170038:

Tested on: MS2 coat protein
Test: apparent KD of MS2 coat protein; higher = weaker reporter binding
Details: Eterna round: R107
In short: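 Each design's apparent KD comes from the median of binding-curve fits to its normalised clusters. Those clusters carried RNA switches transcribed on-chip from Illumina sequencing clusters. SNAP-549-labelled MS2 coat protein was titrated onto them in twofold steps (0.7 or 1.5 nM to 3 µM; per step 0.8–1.5 h down to 10–20 min). Conditions were 100 mM Tris-HCl pH 7.5, 80 mM KCl, 4 mM MgCl2, without or with constant ligand.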

[1] = input ligand: theophylline 20 uM
[2] = input ligand: theophylline 2 mM
[3] = input ligand: tryptophan 2.4 mM

Row | Sequence | apparent KD of MS2 coat protein (input ligand: arginine 13.2 mM) [nM] | apparent KD of MS2 coat protein (input ligand: none) [nM] | apparent KD of MS2 coat protein [1] [nM] | apparent KD of MS2 coat protein [2] [nM] | apparent KD of MS2 coat protein [3] [nM]
1 | AUAACAUGAGGAUCACCCAUGUAAGCUGAAGGAGCGCUGGAAACAGCAGGUAGGUCGCAGCUACCUACCACCUCAUGAGGUAGGU [(M1)-(M2)-(Arg1)-(Arg2)-(A)'-(M)'-(A)''_Design6] | 16.4 | 18.5 | 24.4 | 25.9 | 19
2 | UAUAUAUAUAGGGAUACCAGCAGAGAAAACGUUUAUCCUAACAUGAGGAUCACCCAUGUAUGCCCUUGGCAGCUUUAUAUAUAUA [8.F] | 23.6 | – | 27.6 | – | 24
3 | AACUGGACCAGUGAUACCAGAGACAUGAGGAUCACCCAUGUACAUGAGGAUCACCCAUGUCUCCCUUGGCAGCACAGCAGGGAGC [Exclusion Theophylline B Gf12] | 66 | 117 | 109 | 720 | 119
4 | ACAUGAGUGGAUAAUAAAUAAGAAGGCGAAGGAGCGUGAAGAAUCACAGGUAGGUCGCGCAAAAUACAUGAGGAUCACCCAUGUU [JR_Nu_ExcArginiA_Sub031] | 22.5 | 27.6 | 35.3 | 29.8 | 25.9
5 | GCUGCUUUGGGAAGGAGCGCUGUGGUAGUGUGGCGGACAUGAGGAUCACCCAUGUGCCUGCAGCAGGUAGGUCGCUUAGGGCAGC [EAP NP+V+V2 #16] | 37.6 | 24.5 | 37.9 | 40.1 | 36.5
6 | UUUGAAAUAACAGAUACCAGCGUGUUAUAAAACAUGAGGAUCACCCAUGUAGUGAUCAAGCGCCCUUGGCAGCUGGUAUUUUAGG [7.F] | 118 | – | 208 | – | 172
7 | AAAAUAAAUAAAACGGGUAACAUGAAGGAUACCAGCCAGGAAACUGGCCCUUGGCAGCCUCUACAUGAGGAUCACCCAUGUCCCG [Mat - Same State Theophlline A - Mod of Eli - D14] | 169 | – | 142 | – | 454
8 | GGAUAGGACACGGCCGCCACUACCUAGGAUACUAGCAACAUUUGGGUAUAUGAGGAUCACCCAUAUAGGACCGGGUGUCCUAUCG | 48.5 | 75.8 | 88 | 95.2 | 102
9 | CGAUCUUUCGAAAGAAGGAUCGAGUCUGAUACCAGAGACGAAAGUCUCCCUUGGCAGCAGUGCCAACAUGAGGAUCACCCAUGUA [Theophylline A 9] | 20.7 | – | 26.3 | – | 18.9
10 | ACCUCAUGUAGAAGGAGCGUCAGAAGCUACAGACAUGAGGAUCACCCAUGUUAGUUGAUCUGACAGGUAGGUCGCUACAGCAGGA [#23 Same State - Arginine B] | 24.1 | 32.3 | 43.9 | 35.6 | 31.8
11 | UAUAUAGAAGGAUGUCAUAUAGAUGCAGAAGGAGCGUAGGAAACUACAGGUAGGUCGCUGAGGUACAUGAGGAUCACCCAUGUAG [SSArg A #17 Slice of Pi] | 32.6 | 33.1 | 54 | 45.5 | 26.7
12 | ACAUUUAACUGAAGGAGCGUGAUAUUUACAUGAGGAUCACCCAUGUCUAUCAUGAGAUAUUCACAGGUAGGUCGCAGACUAAUGA [JR_ExcArginiB_Sub005] | 38.9 | 26.7 | 40.9 | 46.9 | 29.4
13 | UCCUCCUCCGCAAGGAGGAGGAGUUGCGAUACCAGCACGGUAACGUGCCCUUGGCAGCGCACAUGAGGAUCACCCAUGUGGUGUU [#1 Exclusion - Theophylline A Attempt #12 (HarryS)] | 52.7 | 228 | 455 | 379 | 231
14 | AAAGAUUCCUGAACGCCGCAUACCGAUGAUACCAGCCAACGGAAAGGCCCUUGGCAGCAUUAAACAUGAGGAUCACCCAUGUCUA [theeternabot_exclusion_MS2_Theo_A_43] | 11.4 | – | 15 | – | 12.1
15 | ACGAUAGGACAUGAGGAUCACCCAUGUGAUACCAGCCUGGAAACAGGCCCUUGGCAGCACAAAUACUCCAGAAACCUAUCGAAAA [MAT - Exclusion Theophlline A - Mod of Eli - D5] | 103 | – | 263 | – | 337
16 | CACGAAAGAUCGGCCGCCACUAACCUGUGUGUACUAGCACAUGAGGAUCACCCAUGUUCUUGCGUUAGGACCGGGAUUGAGCGUG [#04 Exclusion Tryptophan B] | 20.9 | – | 30.7 | 27.5 | –
